{"source": "paper PMC8411030", "molecular_target": "N-terminal domain of NOEY2 (NOEY2-N), LexA fusion (pGilda/LexA-NOEY2-N) (human) (UniProt O95661)", "sequence (O95661 whole entry, the tested form may be a part)": "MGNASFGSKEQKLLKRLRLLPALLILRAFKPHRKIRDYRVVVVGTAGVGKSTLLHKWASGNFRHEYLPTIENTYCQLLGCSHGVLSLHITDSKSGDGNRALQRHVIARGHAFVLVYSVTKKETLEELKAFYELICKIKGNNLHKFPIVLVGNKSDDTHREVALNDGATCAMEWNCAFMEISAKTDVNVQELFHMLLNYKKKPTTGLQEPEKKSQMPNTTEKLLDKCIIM", "assay": "two-hybrid", "data": [{"substance": "VEGFR-2, B42 fusion (pJG4-5) (from UniProt P35968 1-1356) (receptor)", "values": [{"measurement": "β-galactosidase activity", "result": 92.2, "unit": "unit"}]}]}
